Test results published in patent US20200317768A1 (published 2020).

T1: cynomolgus monkey FcγRIIIaS extracellular domain with C-terminal His-tag (cynomolgus monkey, UniProt Q8SPW2 21-206 at identity 1.00))
T1 construct: Expressed in FreeStyle 293 cells and purified; also called cyno FcγRIIIaS; cynoFcγRIIIaS; not shown: C-terminal His-tag
T1 chain: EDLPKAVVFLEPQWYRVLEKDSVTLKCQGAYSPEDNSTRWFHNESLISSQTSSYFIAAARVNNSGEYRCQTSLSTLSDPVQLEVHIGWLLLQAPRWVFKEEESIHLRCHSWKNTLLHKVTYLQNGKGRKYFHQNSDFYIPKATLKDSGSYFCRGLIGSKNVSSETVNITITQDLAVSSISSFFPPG

T2: human FcγRIIaR extracellular domain with C-terminal His-tag (human, UniProt P12318 34-217)
T2 construct: Expressed in FreeStyle 293 cells and purified; also called human FcγRIIa (type R); FcgRIIaR; not shown: C-terminal His-tag
T2 chain: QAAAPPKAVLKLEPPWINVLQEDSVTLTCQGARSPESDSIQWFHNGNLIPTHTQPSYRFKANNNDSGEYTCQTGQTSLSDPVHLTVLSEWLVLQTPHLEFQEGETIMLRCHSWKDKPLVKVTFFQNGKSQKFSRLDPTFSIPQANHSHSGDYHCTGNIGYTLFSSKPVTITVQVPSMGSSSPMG


Columns and labels:
[1] = molecular target: T1, cynomolgus monkey FcγRIIIaS …; assay: SPR (Biacore); KD of SG1 divided by KD of the variant for this FcgR;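 note: relative to parent M103205H795-SG1 carrying the SG1 human heavy chain constant region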
Method: (§1) The kinetic analysis of interactions between these antibodies and FcγR was carried out using BIACORE® T200 or BIACORE® 4000 (GE Healthcare). HBS-EP+ (GE Healthcare) was used as the running buffer, and the measurement temperature was set to 25° C. A chip produced by immobilizing Protein A. Protein A/G or mouse anti-human IgG kappa light chain (BD Biosciences) onto a Series S Sensor Chip CM4 or CM5 (GE Healthcare) by the amine-coupling method was used. […] After the measurement, the antibody captured on the chip was washed off by allowing reaction with 10 mM glycine-HCl, pH1.5 and 25 mM NaOH so that the chip was regenerated and used repeatedly. The sensorgrams obtained as measurement results were analyzed by the 1:1 Langmuir binding model using the BIACORE® Evaluation Software to calculate the binding rate constant ka (L/mol/s) and dissociation rate constant kd (l/s), and the dissociation constant KD (mol/L) was calculated from these values. […] Regarding such interactions, KD values were calculated using the following 1:1 binding model described in BIACORE® T100 Software Handbook BR1006-48 Edition AE.
(§2) The resultant variants were expressed using M103202L889-SK1 as light chain and their affinity to human and cynoFcγRs were evaluated (Table 20).

[2] = molecular target: T2, human FcγRIIaR extracellular domain …; assay: as above
Method: as §1, §2

| Binder | KD fold (SG1 = 1) [1] | KD fold (SG1 = 1) [2] |
| --- | --- | --- |
| MS_M103205H795-SG1/M103202L889-SK1 (antibody, human IgG1, kappa, Anti-latent myostatin IgG; also called MS1032LO06-SG1) heavy: not shown light: DIVMTQSPATLSLSPGERATLSCTSSQSVYHANWLSWFQQKPGQPPKLLIYWASTLAYGVPSRFSGSGSGTDFTLTISSLQPEDAATYYCAGGYGGGRYAFGQGTKVEIKRTVAAPSVFIFPPSDEQLKSGTASVVCLLNNFYPREAKVQWKVDNALQSGNSQESVTEQDSKDSTYSLSSTLTLSKADYEKHKVYACEVTHQGLSSPVTKSFNRGEC | 1 fold | 1 fold |
| M103205H795-MY169 / M103202L889-SK1 (antibody, human IgG1, kappa, Position 396 variant derived from MY052, expressed with M103202L889-SK1 as light chain) heavy: QVTLKESGPVLVKPTETLTLTCTVSGIDLSHDDISWVRQAPGKGLEWVGIISYAGSTYYASWAKGRLTISKDTSKNQVVLTMTNMDPVDTATYYCARGVPAYSHGGDLWGQGTLVTVSSASTKGPSVFPLAPSSKSTSGGTAALGCLVKDYFPEPVTVSWNSGALTSGVHTFPAVLQSSGLYSLSSVVTVPSSSLGTQTYICNVNHKPSNTKVDKKVEPKSCDKTHTCPPCPAPELLNGPSVFLFPPKPKDTLMISRTPEVTCVVVDVSEEDPEVKFNWYVDGVEVHNAKTKPREEQYNSTYRVVSVLTVLHQDWLNGKEYKCKVSNKALPAPIEKTISKAKGQPREPQVYTLPPSREEMTKNQVSLTCLVKGFYPSDIAVEWESNGQPENNYKTTPDVLDSDGSFFLYSKLTVDKSRWQQGNVFSCSVMHEALHNHYTQKSLSLSP light: DIVMTQSPATLSLSPGERATLSCTSSQSVYHANWLSWFQQKPGQPPKLLIYWASTLAYGVPSRFSGSGSGTDFTLTISSLQPEDAATYYCAGGYGGGRYAFGQGTKVEIKRTVAAPSVFIFPPSDEQLKSGTASVVCLLNNFYPREAKVQWKVDNALQSGNSQESVTEQDSKDSTYSLSSTLTLSKADYEKHKVYACEVTHQGLSSPVTKSFNRGEC | 0.1 fold | 0.4 fold |
| M103205H795-MY170 / M103202L889-SK1 (antibody, human IgG1, kappa, Position 396 variant derived from MY052, expressed with M103202L889-SK1 as light chain) heavy: QVTLKESGPVLVKPTETLTLTCTVSGIDLSHDDISWVRQAPGKGLEWVGIISYAGSTYYASWAKGRLTISKDTSKNQVVLTMTNMDPVDTATYYCARGVPAYSHGGDLWGQGTLVTVSSASTKGPSVFPLAPSSKSTSGGTAALGCLVKDYFPEPVTVSWNSGALTSGVHTFPAVLQSSGLYSLSSVVTVPSSSLGTQTYICNVNHKPSNTKVDKKVEPKSCDKTHTCPPCPAPELLNGPSVFLFPPKPKDTLMISRTPEVTCVVVDVSEEDPEVKFNWYVDGVEVHNAKTKPREEQYNSTYRVVSVLTVLHQDWLNGKEYKCKVSNKALPAPIEKTISKAKGQPREPQVYTLPPSREEMTKNQVSLTCLVKGFYPSDIAVEWESNGQPENNYKTTPEVLDSDGSFFLYSKLTVDKSRWQQGNVFSCSVMHEALHNHYTQKSLSLSP light: DIVMTQSPATLSLSPGERATLSCTSSQSVYHANWLSWFQQKPGQPPKLLIYWASTLAYGVPSRFSGSGSGTDFTLTISSLQPEDAATYYCAGGYGGGRYAFGQGTKVEIKRTVAAPSVFIFPPSDEQLKSGTASVVCLLNNFYPREAKVQWKVDNALQSGNSQESVTEQDSKDSTYSLSSTLTLSKADYEKHKVYACEVTHQGLSSPVTKSFNRGEC | 0.12 fold | 0.4 fold |
| M103205H795-MY168 / M103202L889-SK1 (antibody, human IgG1, kappa, Position 396 variant derived from MY052, expressed with M103202L889-SK1 as light chain) heavy: QVTLKESGPVLVKPTETLTLTCTVSGIDLSHDDISWVRQAPGKGLEWVGIISYAGSTYYASWAKGRLTISKDTSKNQVVLTMTNMDPVDTATYYCARGVPAYSHGGDLWGQGTLVTVSSASTKGPSVFPLAPSSKSTSGGTAALGCLVKDYFPEPVTVSWNSGALTSGVHTFPAVLQSSGLYSLSSVVTVPSSSLGTQTYICNVNHKPSNTKVDKKVEPKSCDKTHTCPPCPAPELLNGPSVFLFPPKPKDTLMISRTPEVTCVVVDVSEEDPEVKFNWYVDGVEVHNAKTKPREEQYNSTYRVVSVLTVLHQDWLNGKEYKCKVSNKALPAPIEKTISKAKGQPREPQVYTLPPSREEMTKNQVSLTCLVKGFYPSDIAVEWESNGQPENNYKTTPAVLDSDGSFFLYSKLTVDKSRWQQGNVFSCSVMHEALHNHYTQKSLSLSP light: DIVMTQSPATLSLSPGERATLSCTSSQSVYHANWLSWFQQKPGQPPKLLIYWASTLAYGVPSRFSGSGSGTDFTLTISSLQPEDAATYYCAGGYGGGRYAFGQGTKVEIKRTVAAPSVFIFPPSDEQLKSGTASVVCLLNNFYPREAKVQWKVDNALQSGNSQESVTEQDSKDSTYSLSSTLTLSKADYEKHKVYACEVTHQGLSSPVTKSFNRGEC | 0.08 fold | 0.4 fold |
| M103205H795-MY171 / M103202L889-SK1 (antibody, human IgG1, kappa, Position 396 variant derived from MY052, expressed with M103202L889-SK1 as light chain) heavy: QVTLKESGPVLVKPTETLTLTCTVSGIDLSHDDISWVRQAPGKGLEWVGIISYAGSTYYASWAKGRLTISKDTSKNQVVLTMTNMDPVDTATYYCARGVPAYSHGGDLWGQGTLVTVSSASTKGPSVFPLAPSSKSTSGGTAALGCLVKDYFPEPVTVSWNSGALTSGVHTFPAVLQSSGLYSLSSVVTVPSSSLGTQTYICNVNHKPSNTKVDKKVEPKSCDKTHTCPPCPAPELLNGPSVFLFPPKPKDTLMISRTPEVTCVVVDVSEEDPEVKFNWYVDGVEVHNAKTKPREEQYNSTYRVVSVLTVLHQDWLNGKEYKCKVSNKALPAPIEKTISKAKGQPREPQVYTLPPSREEMTKNQVSLTCLVKGFYPSDIAVEWESNGQPENNYKTTPFVLDSDGSFFLYSKLTVDKSRWQQGNVFSCSVMHEALHNHYTQKSLSLSP light: DIVMTQSPATLSLSPGERATLSCTSSQSVYHANWLSWFQQKPGQPPKLLIYWASTLAYGVPSRFSGSGSGTDFTLTISSLQPEDAATYYCAGGYGGGRYAFGQGTKVEIKRTVAAPSVFIFPPSDEQLKSGTASVVCLLNNFYPREAKVQWKVDNALQSGNSQESVTEQDSKDSTYSLSSTLTLSKADYEKHKVYACEVTHQGLSSPVTKSFNRGEC | 0.11 fold | 0.5 fold |
| M103205H795-MY052 / M103202L889-SK1 (antibody, human IgG1, kappa, Fc variant of M103205H795-SG1, expressed with M103202L889-SK1 as light chain; parent of the position 396 variants) heavy: QVTLKESGPVLVKPTETLTLTCTVSGIDLSHDDISWVRQAPGKGLEWVGIISYAGSTYYASWAKGRLTISKDTSKNQVVLTMTNMDPVDTATYYCARGVPAYSHGGDLWGQGTLVTVSSASTKGPSVFPLAPSSKSTSGGTAALGCLVKDYFPEPVTVSWNSGALTSGVHTFPAVLQSSGLYSLSSVVTVPSSSLGTQTYICNVNHKPSNTKVDKKVEPKSCDKTHTCPPCPAPELLNGPSVFLFPPKPKDTLMISRTPEVTCVVVDVSEEDPEVKFNWYVDGVEVHNAKTKPREEQYNSTYRVVSVLTVLHQDWLNGKEYKCKVSNKALPAPIEKTISKAKGQPREPQVYTLPPSREEMTKNQVSLTCLVKGFYPSDIAVEWESNGQPENNYKTTPMVLDSDGSFFLYSKLTVDKSRWQQGNVFSCSVMHEALHNHYTQKSLSLSP light: DIVMTQSPATLSLSPGERATLSCTSSQSVYHANWLSWFQQKPGQPPKLLIYWASTLAYGVPSRFSGSGSGTDFTLTISSLQPEDAATYYCAGGYGGGRYAFGQGTKVEIKRTVAAPSVFIFPPSDEQLKSGTASVVCLLNNFYPREAKVQWKVDNALQSGNSQESVTEQDSKDSTYSLSSTLTLSKADYEKHKVYACEVTHQGLSSPVTKSFNRGEC | 0.24 fold | 0.8 fold |
